Data: US20220073618A1 (NANJING GENSCRIPT BIOTECH, published 2022)

Experiments:
[1] = biological target: T1, PD-L1-HIS recombinant protein (human, UniProt Q9NZQ7 19-238, limits assumed); assay: SPR (Biacore 8K), antibody captured on chip, PD-L1-HIS analyte 2.5-80 nM, 1:1 binding model
T1 construct: not shown: His tag
Description: The chip surface was equilibrated with HBS-EP buffer at a flow rate of 10 μl/min for 5 min, and then a 1:1 mixture of “NHS+EDC” was injected at a flow rate of 10 μl/min for 420 sec to activate the chip. The capture antibody (goat anti-murine IgG) diluted in 10 mM sodium acetate buffer was injected for about 420 sec at a flow rate of 10 μl/min for coupling, and finally ethanolamine was injected for 420 sec at a flow rate of 10 μl/min to block the surface.
Three pre-cycles were performed with the HBS-EP buffer as a sample to balance the chip to stabilize the baseline. The antibody diluted in HBS-EP buffer was injected for 30 sec at a flow rate of 10 μl/min (where the antibody-antigen binding signal was controlled to about 100 RU by adjusting the capture time between 0-5 min), and then the chip was equilibrated with the buffer for 1 min. The low-concentration antigen 2.5 nM PD-L1-HIS was injected at a flow rate of 30 μl/min for 240/300 seconds, to allow the antigen to bind to the antibody, and then the buffer was injected at a flow rate of 30 μl/min for 720/600 seconds for dissociation. 50 mM HCl were injected three times each for 15 s at a flow rate of 100 μl/min for regeneration, to complete one cycle. The antigen concentration was changed (such as 5 nM PD-L1-HIS) to carry out the cycle for measurement at a next gradient concentration until all gradient concentrations (2.5 nM, 5 nM, 10 nM, 20 nM, 40 nM, 80 nM PD-L1-HIS) and the replicate (such as 10 nM PD-L1-HIS) were tested.
The experimental data was double subtracted (minus the background values of the control channel and zero concentration), and fitted to the “1:1 binding” model in the Biacore 8K evaluation software. Biacore 8K was used to determine the affinity of the antibody to the PD-L1-HIS recombinant protein.

PD-L1/Fc [2] = biological target: T2, PD-L1/Fc (UniProt Q9NZQ7 19-238, limits assumed); assay: SPR (Biacore 8K), prokaryotically expressed antibody as ligand, PD-L1/Fc as analyte, 1:1 binding model
T2 construct: not shown: Fc part

human PD-L1 protein [3] = biological target: T3, human PD-L1 protein (human, UniProt Q9NZQ7 19-238, limits assumed); assay: ELISA on human PD-L1 protein; antibody treated for 20 min (overlapping curves, room temperature to 60 C by the legend, not told apart)
Description: (§1) The antibody samples were treated for 20 min at various temperature gradients respectively, and then centrifuged to remove the pellet. Then the amount of remaining antibody was evaluated by ELISA. (The temperature gradient includes: room temperature, 30° C., 40° C., 50° C., 60° C., 70° C., […]) (FIG. 4)

human PD-L1 protein [4] = biological target: T3, human PD-L1 protein; assay: ELISA on human PD-L1 protein; antibody kept at 40 C for 0 (D0), 7 (D7) or 14 (D14) days
Description: The antibody samples were treated separately at 40° C., and then centrifuged to remove the pellet. Then the amount of remaining antibody was evaluated by ELISA. (test after treatment at 40° C. for 7 days (D7) and 14 days (D14) separately; for each test, the untreated sample (D0) stored at −80° C. is used as a control) (FIG. 3)

human PD-L1 protein [5] = biological target: T3, human PD-L1 protein; assay: ELISA on human PD-L1 protein; control antibody stored at -80 C
Description: as §1

PD-L1/Fc [6] = biological target: T2, PD-L1/Fc; assay: SPR (Biacore 8K), antibody as ligand, PD-L1/Fc as analyte, 1:1 binding model

T3 sequence (Q9NZQ7 19-238 limits assumed): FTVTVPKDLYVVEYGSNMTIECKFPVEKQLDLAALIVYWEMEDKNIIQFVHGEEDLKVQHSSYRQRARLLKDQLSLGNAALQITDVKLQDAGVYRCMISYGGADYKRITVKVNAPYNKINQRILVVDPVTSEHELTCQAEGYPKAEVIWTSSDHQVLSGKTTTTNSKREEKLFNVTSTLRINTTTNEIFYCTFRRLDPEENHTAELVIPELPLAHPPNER
T2 sequence (Q9NZQ7 19-238 limits assumed): as above
T1 sequence (Q9NZQ7 19-238 limits assumed): as above

| Binder | Kd [1] [nM] | koff [1] [s⁻¹] | kon [1] [M⁻¹ s⁻¹] | Kd (PD-L1/Fc [2]) [pM] | koff (PD-L1/Fc [2]) [s⁻¹] | kon (PD-L1/Fc [2]) [M⁻¹ s⁻¹] | other results |
| --- | --- | --- | --- | --- | --- | --- | --- |
| AH01947 (antibody, human IgG1, V domains shown, also called mPD-L1Ab-CBM clone AH01947) VH: QVQLQESGPGLVKPSQTLSLTCTVSGYSITSGYTWHWIRQHPGKGLEWIGYIHYSGSTKYNPSLKSRVTISVDTSKNQFSLKLSSVTAADTAVYYCARNSLFASWGQGTLVTVSS VL: DIVLTQSPDSLAVSLGERATINCRASESVDTYGDSFMHWFQQKPGQPPKLLIYRASNLESGVPDRFSGSGSGTDFTLTISSLQAEDVAVYYCQQSNEAPYTFGGGTKLEIK | 3.11 | 0.000714 | 230000 |  |  |  |  |
| AH01950 (prokaryotically expressed antibody product) (Fab, V domains shown) VH: QVQLQESGPGLVKPSQTLSLTCTVSGYSITSGYTWHWIRQHPGKGLEWIGYIHYSGSTKYNPSLKSRVTISRDTSKNQFSLKLSSVTAADTAVYYCARNSLFASWGQGTLVTVSS VL: DIVLTQSPDSLAVSLGERATINCRASESVDTYGDSFMHWFQQKPGQPPKLLIYRASNLESGVPDRFSGSGSGTDFTLTISSLQAEDVAVYYCQQSNEAPYTFGGGTKLEIK |  |  |  | 36.7 | 1.9e-05 | 518000 |  |
| AH01964 (antibody, human IgG1, V domains shown, also called mPD-L1Ab-CBM clone AH01964) VH: QVQLQESGPGLVKPSQTLSLTCTVSGYSITSGYTWHWIRQHPGKGLEWIGYIHYSGSTKYNPSLKSRVTISRDTSKNQFSLKLSSVTAADTAVYYCARNSLFASWGQGTLVTVSS VL: DIVMTQSPDSLAVSLGERATINCRASESVDTYGDSFMHWYQQKPGQPPKLLIYRASNLESGVPDRFSGSGSGTDFTLTISSLQAEDVAVYYCQQSNEAPYTFGGGTKL | 1.76 | 0.00037 | 210000 |  |  |  |  |
| AH01964 (prokaryotically expressed antibody product) (Fab, V domains shown) VH: QVQLQESGPGLVKPSQTLSLTCTVSGYSITSGYTWHWIRQHPGKGLEWIGYIHYSGSTKYNPSLKSRVTISRDTSKNQFSLKLSSVTAADTAVYYCARNSLFASWGQGTLVTVSS VL: DIVMTQSPDSLAVSLGERATINCRASESVDTYGDSFMHWYQQKPGQPPKLLIYRASNLESGVPDRFSGSGSGTDFTLTISSLQAEDVAVYYCQQSNEAPYTFGGGTKL |  |  |  | 46.8 | 2.48e-05 | 530000 |  |
| AH01947 (prokaryotically expressed antibody product) (Fab, V domains shown) VH: QVQLQESGPGLVKPSQTLSLTCTVSGYSITSGYTWHWIRQHPGKGLEWIGYIHYSGSTKYNPSLKSRVTISVDTSKNQFSLKLSSVTAADTAVYYCARNSLFASWGQGTLVTVSS VL: DIVLTQSPDSLAVSLGERATINCRASESVDTYGDSFMHWFQQKPGQPPKLLIYRASNLESGVPDRFSGSGSGTDFTLTISSLQAEDVAVYYCQQSNEAPYTFGGGTKLEIK |  |  |  | 82.2 | 4.38e-05 | 533000 |  |
| AH01963 (prokaryotically expressed antibody product) (Fab, V domains shown) VH: QVQLQESGPGLVKPSQTLSLTCTVSGYSITSGYTWHWIRQHPGKGLEWIGYIHYSGSTKYNPSLKSRVTISRDTSKNQFSLKLSSVTAADTAVYYCARNSLFASWGQGTLVTVSS VL: DIVLTQSPDSLAVSLGERATINCRASESVDTYGDSFMHWYQQKPGQPPKLLIYRASNLESGVPDRFSGSGSGTDFTLTISSVQAEDVAVYYCQQSNEAPYTFGGGTKLEIK |  |  |  | 34.4 | 1.63e-05 | 474000 |  |
| AH01946 (prokaryotically expressed antibody product) (Fab, V domains shown) VH: QVQLQESGPGLVKPSQTLSLTCTVSGYSITSGYTWHWIRQHPGKGLEWIGYIHYSGSTKYNPSLKSRVTISRDTSKNQFSLKLSSMTAADTAVYYCARNSLFASWGQGTLVTVSS VL: DIVLTQSPDSLAVSLGERATINCRASESVDTYGDSFMHWFQQKPGQPPKLLIYRASNLESGVPDRFSGSGSGTDFTLTISSVQAEDVAVYYCQQSNEAPYTFGGGTKLEIK |  |  |  | 9.4 | 4.72e-06 | 502000 |  |
| Chimeric antibody (as ranked in Table 2) (Fab, V domains shown) VH: DVQLQESGPDLVKPSQSLSLTCTVTGYSITSGYTWHWIRQFPGNKLEWMGYIHYSGSTKYNPSLKSRFSITRDTSKNQFFLQLNSMTAEDTATYYCARNSLFASWGHGTLVTVSA VL: DIVLTQSPASLAVSLGQRATISCRASESVDTYGDSFMHWFQQKPGQPPKLLIYRASNLESGIPARFSGSGSRTDFTLTINPVEADDVATYYCQQSNEAPYTFGGGTKLEIK |  |  |  |  |  |  | Kd (PD-L1/Fc [6]): 0.058 nM; koff (PD-L1/Fc [6]): 2.03e-05 s⁻¹; kon (PD-L1/Fc [6]): 349000 M⁻¹ s⁻¹ |

Second part, led by results:

| Kd [1] [nM] | koff [1] [s⁻¹] | kon [1] [M⁻¹ s⁻¹] | Kd (PD-L1/Fc [2]) [pM] | koff (PD-L1/Fc [2]) [s⁻¹] | kon (PD-L1/Fc [2]) [M⁻¹ s⁻¹] | Binder | other results |
| --- | --- | --- | --- | --- | --- | --- | --- |
| 0.903 | 0.000166 | 184000 |  |  |  | AH02033 (antibody, human IgG1, V domains shown, also called mPD-L1Ab-5BM clone AH02033) VH: QVQLQESGPGLVKPSQTLSLTCTVTGYSITSGYTWHWIRQHPGKGLEWMGYIHYSGSTKYNPSLKSRFTISRDTSKNQFSLKLSSVTAADTAVYYCARNSLFASWGQGTLVTVSS VL: DIVLTQSPDSLAVSLGERATINCRASESVDTYGDSFMHWFQQKPGQPPKLLIYRASNLESGIPDRFSGSGSGTDFTLTISSLQAEDVAVYYCQQSNEAPYTFGGGTKLEIK |  |
|  |  |  | 43.9 | 1.58e-05 | 359000 | AH02030 (prokaryotically expressed antibody product) (Fab, V domains shown) VH: QVQLQESGPGLVKPSQTLSLTCTVTGYSITSGYTWHWIRQHPGKGLEWIGYIHYSGSTKYNPSLKSRFTITRDTSKNQFSLKLSSVTAADTAVYYCARNSLFASWGQGTLVTVSS VL: DIVLTQSPDSLAVSLGERATINCRASESVDTYGDSFMHWYQQKPGQPPKLLIYRASNLESGVPDRFSGSGSRTDFTLTISSLQAEDVAVYYCQQSNEAPYTFGGGTKLEIK |  |
|  |  |  | 56.8 | 1.93e-05 | 339000 | AH02029 (prokaryotically expressed antibody product) (Fab, V domains shown) VH: QVQLQESGPGLVKPSQTLSLTCTVTGYSITSGYTWHWIRQHPGKGLEWIGYIHYSGSTKYNPSLKSRVSISRDTSKNQFSLKLSSVTAADTAVYYCARNSLFASWGQGTLVTVSS VL: DIVLTQSPDSLAVSLGERATINCRASESVDTYGDSFMHWYQQKPGQPPKLLIYRASNLESGVPDRFSGSGSGTDFTLTISSLQAEDVAVYYCQQSNEAPYTFGGGTKLEIK |  |
|  |  |  | 0.0676 | 2.71e-08 | 401000 | AH02033 (prokaryotically expressed antibody product) (Fab, V domains shown) VH: QVQLQESGPGLVKPSQTLSLTCTVTGYSITSGYTWHWIRQHPGKGLEWMGYIHYSGSTKYNPSLKSRFTISRDTSKNQFSLKLSSVTAADTAVYYCARNSLFASWGQGTLVTVSS VL: DIVLTQSPDSLAVSLGERATINCRASESVDTYGDSFMHWFQQKPGQPPKLLIYRASNLESGIPDRFSGSGSGTDFTLTISSLQAEDVAVYYCQQSNEAPYTFGGGTKLEIK |  |
| 1.17 | 0.000216 | 185000 |  |  |  | AH02030 (antibody, human IgG1, V domains shown, also called mPD-L1Ab-5BM clone AH02030) VH: QVQLQESGPGLVKPSQTLSLTCTVTGYSITSGYTWHWIRQHPGKGLEWIGYIHYSGSTKYNPSLKSRFTITRDTSKNQFSLKLSSVTAADTAVYYCARNSLFASWGQGTLVTVSS VL: DIVLTQSPDSLAVSLGERATINCRASESVDTYGDSFMHWYQQKPGQPPKLLIYRASNLESGVPDRFSGSGSRTDFTLTISSLQAEDVAVYYCQQSNEAPYTFGGGTKLEIK |  |
| 1.27 | 0.000219 | 172000 |  |  |  | Chimeric antibody (antibody, V domains shown, also called mPD-L1Ab-Chim) VH: DVQLQESGPDLVKPSQSLSLTCTVTGYSITSGYTWHWIRQFPGNKLEWMGYIHYSGSTKYNPSLKSRFSITRDTSKNQFFLQLNSMTAEDTATYYCARNSLFASWGHGTLVTVSA VL: DIVLTQSPASLAVSLGQRATISCRASESVDTYGDSFMHWFQQKPGQPPKLLIYRASNLESGIPARFSGSGSRTDFTLTINPVEADDVATYYCQQSNEAPYTFGGGTKLEIK | EC50 (read off the curve) (human PD-L1 protein [3]): ~8 ng/mL; EC50 (read off the curve) (human PD-L1 protein [4]): ~10 ng/mL; EC50 (read off the curve) (human PD-L1 protein [5]): ~10 ng/mL |
